{"source": "paper PMC10879702", "about": "“Host ZCCHC3 blocks HIV-1 infection and production through a dual mechanism”", "key": {"[1]": {"test_system": "GST-ZCCHC3 MF R247S (human)", "experiment": "pull-down"}, "[2]": {"test_system": "GST-ZCCHC3 MF R168/247S (human)", "experiment": "pull-down"}, "[3]": {"test_system": "GST-ZCCHC3 MF R168S (human)", "experiment": "pull-down"}, "[4]": {"biological_target": "T1, GST-ZCCHC3 MF (middle-fold domain) (human, UniProt Q9NUD5 159-334)", "T1 sequence": "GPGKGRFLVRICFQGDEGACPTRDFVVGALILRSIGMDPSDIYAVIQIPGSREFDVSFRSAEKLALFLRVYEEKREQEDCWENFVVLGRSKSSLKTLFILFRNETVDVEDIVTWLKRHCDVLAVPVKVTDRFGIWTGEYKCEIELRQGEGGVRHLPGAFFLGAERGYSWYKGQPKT", "experiment": "pull-down", "conditions": "protein: recombinant; tags: GST; hairpin"}, "[5]": {"biological_target": "T1, GST-ZCCHC3 MF (middle-fold domain)", "experiment": "pull-down; Pull-down: 20 mM Tris-HCl pH 7.4, 30 mM NaCl, 0.1 mM MgCl2, 1 mM DTT, RNase inhibitor, 10 min; EMSA: 40 mM Tris pH 8.0, 2 mM KCl, 1 mM MgCl2, 1% NP-40, 1 mM DTT, 25 C, 10 min", "conditions": "protein: recombinant; tags: GST; hairpin"}}, "data": [{"molecule": "HIV-1 5' LTR (R-U5) RNA", "values": [{"measurement": "binding signal", "setting": "[1]", "value": "50 % of WT"}, {"measurement": "binding signal", "setting": "[2]", "value": "15 % of WT"}, {"measurement": "binding signal", "setting": "[3]", "value": "50 % of WT"}]}, {"molecule": "UCUCUGGUUAGACCAGAUCUGAGCCUGGGAGCUCUCUGGCUAACUAGGGA (structured_RNA)", "note": "[HIV-1 LTR SL1]", "values": [{"measurement": "binding result", "setting": "[4]", "value": "binds"}]}, {"molecule": "CUAGAGAUCCCUCAGACCCUUUUAGUCAGUGUGGAAAAUCUCUAG (structured_RNA)", "note": "[HIV-1 LTR SL3]", "values": [{"measurement": "binding result", "setting": "[5]", "value": "binds"}]}, {"molecule": "CCACUGCUUAAGCCUCAAUAAAGCUUGCCUUGAGUGCUCAAAGUAGUGU (structured_RNA)", "note": "[HIV-1 LTR SL2]", "values": [{"measurement": "binding result", "setting": "[4]", "value": "binds"}]}]}
